Among the data in article PMC7083938, “NELL2-Robo3 complex structure reveals mechanisms of receptor activation for axon guidance” (Nature Communications, 2020) are Kd values, retold here.

Test in all cases: flow cytometry on cells; biotinylated ligand at various concentrations, 30 min at 4 °C in PBS + 0.1% BSA, on Drosophila S2 cells displaying the partner (C-terminal FLAG, rat Neurexin-1 transmembrane helix); Cy5-streptavidin; gated on anti-FLAG positive cells; MFI fit to a single-site model; apparent KD
Holding throughout (conditions): one partner purified
(In general: Flow cytometry measures light scatter and fluorescence of single cells or particles in a stream.)

In assay [1] the target is T1, hRobo3 FN1-3 E639A, biotinylated (human, UniProt Q96MS0 549-870, E639A, biotin on the Avi-tag (BirA)).
T1 construct: human Robo3, FN domains 1-3, P549-L870; source: High Five cells (baculovirus), purified, biotinylated with BirA (general methods)
T1 sequence (looked up): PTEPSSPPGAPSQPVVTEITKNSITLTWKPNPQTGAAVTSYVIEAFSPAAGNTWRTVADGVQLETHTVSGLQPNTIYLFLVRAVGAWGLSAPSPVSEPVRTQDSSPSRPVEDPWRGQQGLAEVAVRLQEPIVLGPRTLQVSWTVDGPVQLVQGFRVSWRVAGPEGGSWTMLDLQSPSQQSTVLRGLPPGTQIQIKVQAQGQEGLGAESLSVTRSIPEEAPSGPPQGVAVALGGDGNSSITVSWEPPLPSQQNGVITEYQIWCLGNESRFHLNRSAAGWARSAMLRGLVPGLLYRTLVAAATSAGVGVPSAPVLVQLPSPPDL

Assay [2] addresses T2, hRobo3 FN1-3 R630A, biotinylated (human, UniProt Q96MS0 549-870, R630A, biotin on the Avi-tag (BirA)).
T2 construct: human Robo3, FN domains 1-3, P549-L870; source: High Five cells (baculovirus), purified, biotinylated with BirA (general methods)
T2 sequence (looked up): T1 sequence (looked up) with R82A, A91E

In assay [3] the target is T3, hRobo3 FN1-3 N600A/T601A, biotinylated (human, UniProt Q96MS0 549-870, N600A | T601A, biotin on the Avi-tag (BirA)).
T3 construct: human Robo3, FN domains 1-3, P549-L870; source: High Five cells (baculovirus), purified, biotinylated with BirA (general methods)
T3 sequence (looked up): T1 sequence (looked up) with N52A, T53A, A91E

Assay [4] has as its target T4, hRobo3 FN1-3 I624A/L626A, biotinylated (human, UniProt Q96MS0 549-870, I624A | L626A, biotin on the Avi-tag (BirA)).
T4 construct: human Robo3, FN domains 1-3, P549-L870; source: High Five cells (baculovirus), purified, biotinylated with BirA (general methods)
T4 sequence (looked up): T1 sequence (looked up) with I76A, L78A, A91E

Assay [5] has as its target T5, hRobo3 FN1-3, biotinylated (wild type) (human, UniProt Q96MS0 549-870, biotin on the Avi-tag (BirA)).
T5 construct: human Robo3, FN domains 1-3, P549-L870; also called WT hRobo3 FN; Robo3FN1-3 WT; source: High Five cells (baculovirus), purified (Ni-NTA, SEC), biotinylated with BirA
T5 sequence (looked up): T1 sequence (looked up) with A91E

Changes are numbered by the printed parent chain. Bounds are passed on as bounds.

B1: hNELL2 EGF1-6 displayed on S2 cells (domain or fragment)
chain: not shown
notes: human NELL2, EGF domains 1-6, G397-T637; also called NELL2EGF1-6 WT (Actin 5C, C-terminal FLAG); FLAG-tagged NELL2 EGF1-6; source: Drosophila S2 cells, transiently transfected, on the cell surface; not shown: FLAG, C-terminal, kept; transmembrane helix of rat Neurexin-1, C-terminal, kept
As to B1, the Kd is 1100 nM in assay [1]; at least 100 µM in assay [2]; 2900 nM in assay [3]; 6.5 µM in assay [4]; 890 nM in assay [5].
